# In PMC11537708:
# pKd: −log10 of the molar value.
# Tests used:
# [1] = biological target: human full-length CD45 extracellular domain (ECD) isoform RABC (human) (UniProt P08575); experiment: SPR; GE Biacore T100; about 200 RU of human CD45 ECD, E3/49K immobilised on an SA-chip, reference channel with an unrelated protein; HBS-P+; twofold serial dilutions, 30 s association, 30 ul/min, 25 °C
# [2] = biological target: human full-length CD45 extracellular domain (ECD) isoform RABC (human) (UniProt P08575); experiment: cryo-EM structure; fully glycosylated human CD45 ECD bound to E3/49K, purified by size exclusion chromatography; 0.01% FOM; 3.8-Å nominal resolution map
# Chain of UniProt P08575 (P08575 26-577): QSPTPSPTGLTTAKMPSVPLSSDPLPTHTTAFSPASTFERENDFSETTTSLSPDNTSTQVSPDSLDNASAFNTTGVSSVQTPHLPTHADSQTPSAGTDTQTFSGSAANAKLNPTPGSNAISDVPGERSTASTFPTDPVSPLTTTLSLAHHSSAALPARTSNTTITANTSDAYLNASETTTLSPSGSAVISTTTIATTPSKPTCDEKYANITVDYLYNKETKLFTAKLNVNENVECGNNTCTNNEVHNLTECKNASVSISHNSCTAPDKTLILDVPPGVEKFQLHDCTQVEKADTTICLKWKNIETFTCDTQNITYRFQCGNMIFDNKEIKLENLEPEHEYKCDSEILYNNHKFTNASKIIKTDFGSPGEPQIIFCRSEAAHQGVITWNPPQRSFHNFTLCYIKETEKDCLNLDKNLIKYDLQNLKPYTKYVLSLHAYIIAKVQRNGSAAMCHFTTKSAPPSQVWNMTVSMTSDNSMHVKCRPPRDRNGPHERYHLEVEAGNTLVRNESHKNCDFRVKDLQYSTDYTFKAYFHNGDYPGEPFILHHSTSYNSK
substance,measurement,setting,value
E3/49K R1 domain (domain or fragment),pKd,[1],7.13
E3/49K R2 domain (domain or fragment),pKd,[1],6.84
adenoviral D19a strain E3/49K ECD (domain or fragment),stoichiometry N (CD45 per E3/49K),[2],2
same,pKd,[1],9.52
same,koff,[1],0.000598 s⁻¹
same,kon,[1],2.08e+06 M⁻¹ s⁻¹
